Results taken from PMC2764113 (Molecular Microbiology, 2009).
Positions count from the first letter of the chain named. Names and notes keep the numbering of the source.

B1: Q115R Sin (enzyme, Staphylococcus aureus (plasmid pI9789))
chain: MIIGYARVSSLDQNLERQLENLKTFGAEKIFTEKQSGKSIENRPILQKALNFVRMGDRFIVESIDRLGRNYNEVIHTVNYLKDKEVQLMITSLPMMNEVIGNPLLDKFMKDLIIRILAMVSEQERNESKRRQAQGIQVAKEKGVYKGRPLLYSPNAKDPQKRVIYHRVVEMLEEGQAISKIAKEVNITRQTVYRIKHDNGLS
B2: T77I/I100T/Q115R Sin (enzyme, Staphylococcus aureus (plasmid pI9789))
chain: B1 chain with T77I, I100T

Target: the molecule itself
Assay: native gel or EMSA

Protein | binding result
B1 | binds
B2 | binds
